This note sets out measurements from paper PMC7859239.

As a reminder, the stoichiometry N is a count of units in the complex or per binding partner.

In test [1] the target is Schizosaccharomyces pombe RNA polymerase I (Schizosaccharomyces pombe (endogenous in S. pombe)) (UniProt P15398). Description: negative-stain EM with 2D classification; peak fraction of the analytical SEC in high-salt buffer S1500 (1.5 M KAc); uranyl formate; 20,054 particles classified into 16 classes.
Test [2] shares this target. Description: negative-stain EM with 2D classification; peak fraction of the analytical SEC in low-salt buffer S300 (300 mM KAc); uranyl formate; 24,462 particles classified into 16 classes.
For test [3] the target is unchanged. Put plainly: cryo-EM structure; dimer particles in the 'monomer' dataset of BS3-crosslinked Sp Pol I after SEC (5 mM HEPES pH 7.8, 1 mM MgCl2, 10 µM ZnCl2, 150 mM KCl, 5 mM DTT); C2 symmetry imposed; 4.5 Å; model by placing two monomers and rigid body fitting of subdomains.

Turning to “Schizosaccharomyces pombe RNA polymerase I, P15398 1-1689; Q9P7X8 1-1174; O94616 1-348; Q09177 1-125; O43036 1-173; Q9P7P1 1-147; O94703 1-119; Q09191 1-210; P36595 1-142; Q92399 1-125; O13877 1-71; P48011 1-63; O14086 1-425; Q9USZ4 1-251”, in test [1], the percent of Pol I molecules in a dimeric state is 49% and the percent of identified particles in a dimeric state amounted to 32%. Further, in test [2], the percent of particles in a dimeric state is below 2%. Moreover, in test [3], the stoichiometry N came to 2.
